In PMC8280106 (2021):
Each block holds one molecule with its values, some of them ahead of it.

Key:
[1] = molecular target: Trefoil factor 3 (TFF3), recombinant mature form (residues 22-80) (human); assay: SPR; Biacore T200; TFF peptides immobilised on a CM5 chip (10 mM sodium acetate pH 4.0); purified proteins as analytes at 30 µL/min, 2 min association; multiple cycle kinetics, 1:1 model
murine TFF3 (mTFF3) = molecular target: T1, murine TFF3 (mTFF3) (mouse, UniProt Q62395 23-81); assay: SPR
T1 chain: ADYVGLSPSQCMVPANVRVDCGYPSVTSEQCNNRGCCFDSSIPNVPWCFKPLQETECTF

Kd [1]: 2030 nM
Molecule: extracellular domain of CD147 (CD147^ECD) (domain or fragment)

Kd (murine TFF3 (mTFF3)): 2510 nM
B1: murine CD147^ECD (mCD147^ECD) (domain or fragment)
chain: AAGTIQTSVQEVNSKTQLTCSLNSSGVDIVGHRWMRGGKVLQEDTLPDLHTKYIVDADDRSGEYSCIFLPEPVGRSEINVEGPPRIKVGKKSEHSSEGELAKLVCKSDASYPPITDWFWFKTSDTGEEEAITNSTEANGKYVVVSTPEKSQLTISNLDVNVDPGTYVCNATNAQGTTRETISLRVRSR
